From the nanobody polyreactivity screen of Harvey et al. (2022)

Assay: yeast display, Sf9 membrane polyspecificity reagent, FACS + sequencing; frameworks hold sequencing errors
Method in brief: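 Galactose induction of a Saccharomyces cerevisiae BJ5465 synthetic nanobody display library ran 36–48 hours. The cells were then stained for 1 hour at 4 °C with 10% biotinylated, detergent-solubilized Sf9 membrane reagent, pulled down on streptavidin microbeads and FACS-sorted into low and high (top ~1%) gates on expression and reagent-binding fluorescence. Labels for polyreactivity follow the gate of origin.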

Sequence | polyreactivity (PSR sort gate)
QVHLVESGGGLVQAGGSLRLSCAASGRTFRDYTMGWYRQAPGKEREFVAAISSTGSTNYADSVKGRFTISRDNAKNTVYLQMNSLKPEDTAVYYCAADGRRWLGWYGYYYWGQGTQVTVSS | low polyreactivity
QVHLVESGGGLVQAGGSLRLSCAASGRTFRYYAMGWYRQAPGKERELVAAITGSGGRTYYADSVKGRFTISRDNAKNTVYLQMNTLKPEDTAVYYCNRDPDIYICYDYWGQGTQVTVSS | high polyreactivity
QVHLVESGGGLVQAGGSLRLSCAASGRTFSTYAMGWYRQAPGKESELVAAISSGGGRTYYADSVKGRFTISRDNAKNTVYLQMNSLKPEDTAVYYCAADRYFRSRRSYEYWGQGTQVTVSS | low polyreactivity
QVHLVESGGGLVQAGGSLRLSCAASGRTFVAYAMGWYRQAPAKERELVARISSGGSTYYADSVKGRFTISRDNAKNTVYLQMNSLKPEDTAVYYCAADRGPFFVPWRRYDYWGQGTEVTVSS | low polyreactivity
QVHLVESGGGLVQAGGSLRLSCAASGRTFWDYAMRWYRQAPGKEREFVAAINTYGGRTYYADSVKGRFTISRDNAINTVYLQMNSLKPEDTAVYYCADRTRDRAYDSWGQGTEVTVSS | high polyreactivity
QVHLVESGGGLVQAGGSLRLSCAASGRTIGWNVMGWYRQAPGKERELVAAISGSGITYADSVKGRFTISRDNAKNTVYLQMNSLKPEDTAVYYCAARARRYTDEYDYWGQGTQVTLSS | low polyreactivity
QVHLVESGGGLVQAGGSLRLSCAASGRTLRSYAMGWYRQAPGKERELVAAINWRDTNTYYADSVKGRFTISRDNAKNTVYLQMNSLKPEDTAVYYCAARYYSRGWRYNYWGPGTQVTVSS | high polyreactivity
QVHLVESGGGLVQAGGSLRLSCAASGRTYIRNAMGWYRQAPGKERELVAAISSRGGRTYYADSVKGRFTISRDNAKNTVYLQMNSLKPEDTAVYYCAADFTYKLDGYDYWGQGTQVTVSS | high polyreactivity
QVHLVESGGGLVQAGGSLRLSCAASGSIFDYYAMGWYRQAPGKERELVAAITYDSGRTYYADSVKGRFTNSRDNAKNTVYLQMYSLKPEDTAVYYCNKYSYSWRYCPGTSGYDYWGQGTQVTVSS | low polyreactivity
QVHLVESGGGLVQAGGSLRLSCAASGSIFGYNAMGWYRQAPGKERELVAAITWRGGSTYYADSVKGRFTISRDNAKNTVYLQMNSLKPEDTAVYYCAAYVYQEYDYWGQGTQVTVSS | high polyreactivity
QVHLVESGGGLVQAGGSLRLSCAASGSIFGYNTMGWYRQAPGKERELVATISGSGGSSYYADSVKGRFTISRDNAKNTVYLQMNSLKPEDTSVYYCAARAYSRYRRTYDYWGQGTQVTVSS | high polyreactivity
QVHLVESGGGLVQAGGSLRLSCAASGSIFITYAMVWYRQAPGKERELVAAIRDSGDRTYYADSVKGRFTISRDNAKNTVYLQMNSLKPEDTAVYYCNARWQEPLKYDYWGQGTKVTVSS | low polyreactivity
QVHLVESGGGLVQAGGSLRLSCAASGSIFLVYAMGWYRPAPGKERELVAVISNGGRTNYADSVKGRFTISRDNAKNTVYLQMNSLKPEDTAVYYCAVRGPTDYWADPYSAGDHWGQGTQVTVSS | high polyreactivity
QVHLVESGGGLVQAGGSLRLSCAASGSIFPYYVMGWYRQAPGKERELVAAISSGGNTYYADSVKGRFTISRDNAKNTVYLQMNSLKPEDTAVYYCNADKSYFVLLFGGYDYWGQGTQVTVSS | high polyreactivity
QVHLVESGGGLVQAGGSLRLSCAASGSIFRSYAMGWYRQAPGKERELVAGISWSGGSTYYADSVKGRFTISRDNAKNTVYLQMNSLKPEDTPVYYCDADIKIRLYTTGDYWGQGTQVTVSS | low polyreactivity
QVHLVESGGGLVQAGGSLRLSCAASGSIFSGYAMGWYRQAPGKEREFVAAISSSGGRTYYADSVKGRFTISRDNAKNTVYLQINSLKPEDTAVYYCNARRWPFNYDYWGQGTQVTVSS | high polyreactivity
QVHLVESGGGLVQAGGSLRLSCAASGSIFSSYAMGWYRQAPGKEREFVAAISWGGGSTYYADSVKGRFTISRDNAKNSVYLQMNSLKPEDTAVYYCAVETWLYPYDYWGQGTQVTVSS | high polyreactivity
QVHLVESGGGLVQAGGSLRLSCAASGSIFTRYVMGWYRQAPGKERELVAAISWSGGSTYYADSVKGRFTISRDNAKNTVYLQMNSLKPEDTAVYYCAAYYWYWSAAWWDEGEMEYWGQGTQVTVSS | high polyreactivity
QVHLVESGGGLVQAGGSLRLSCAASGSIFYKYVMGWYRQAPGKERELVAAISRGGGSTYYADSVKGRFTISRDNAKNTVYLQMNSLKPEDTAVYYCNAVGRPRYGHGFDHWGQGTQVTVSS | high polyreactivity
QVHLVESGGGLVQAGGSLRLSCAASGSIISRYTMGWYRQAPGKERELVAAITSSGGSTYYADSVKGRFTISRDNAKNTVYLQMNSLKPEDTAVYYCNKVNRYGKFDYWGQGTQVTVSS | high polyreactivity
QVHLVESGGGLVQAGGSLRLSCAASGSINYYAMGWYRQAPGKERELVAAITGSGGSTYYADSVKGRFTISRDNAKNTVYLQMNSLKPEDTAVYYCAARYGYIYGPYYYWGQGTQVTVSS | high polyreactivity

Sequence | polyreactivity (PSR sort gate)
QVHLVESGGGLVQAGGSLRLSCAASGSNIYNNAMGWYRQAPGTERELVAAIRSTGTRTYYADSVKGRFTISRDNAKNPVNLQMNSLKPEDTAVYYCAVGDYGLWSYDYWGQGTQVTVSS | low polyreactivity
QVHLVESGGGLVQAGGSLRLSCAASGSSFRYYAMGWYRQAPGKERELVAAISGSGGRTYYADSVKGRFTISRDNEKNNVYLQMNSLKPEDTAVYYCAAQSGYYDSAYGYWGQGTKVTVSS | high polyreactivity
QVHLVESGGGLVQAGGSLRLSCAASGSTFATNAMGWYRQAPGIERELVAAITDGGSTNYADSVKGRFTISRDNAKNTVYLQMNSLKPEDTAVYYCAADGFKTVLPEYDYWGQGTQVTVSS | low polyreactivity
QVHLVESGGGLVQAGGSLRLSCAASGSTFDHYAMAWYRQAPGKERELVASITLSGGSTYYADSVKGRFTISRDNAKNTVYLQMNSLKPEDTAVYYCAAVVVYPYRLGYDYWGQGTQVTVSS | low polyreactivity
QVHLVESGGGLVQAGGSLRLSCAASGSTFDTYAMGWYRQAPGKERELVAAISYRGGNTYYADSVKGRFTISRDNAKNTVYLQMNSLKPEDTAVYYCNAGVSIGRSRRYDYWGQGTQVTVSS | low polyreactivity
QVHLVESGGGLVQAGGSLRLSCAASGSTFFKNAMGWYRQAAGKERELVAAITWSGDRTYADSVKGRFTISRDNAKYTVYLQMNSLKPEDTAVYYCNVDITGYEDDYWGQGTQVTVSS | low polyreactivity
QVHLVESGGGLVQAGGSLRLSCAASGSTFIYNTMGWYRQAPGKERELVATITDSSDSTNYADSVKGRFTITRDNAKNTVYLQMNSLKPDDTAVYYCAADGEVDIATYPSQITDYDYWGQGTQVTVSS | low polyreactivity
QVHLVESGGGLVQAGGSLRLSCAASGSTFPRYSMGWYRQAPGTERELVAAITQSGGRTYYADSVKGSFTISRDNAKNTVYLQMNSRKPEDTAVYYFAAEDGLRGNRLYYWGHGTQVTVSS | high polyreactivity
QVHLVESGGGLVQAGGSLRLSCAASGSTFPWYARGWYRKAPGKERELVAAISGSSSTTYYADSVKGRFTISRDNAMNTVYLQMNSLKPEDTAVYYCNAVTTSGSGYGYWGQGTQVTVSS | low polyreactivity
QVHLVESGGGLVQAGGSLRLSCAASGSTFRIYSMGWYRQAPGKERELVAGITGNGGSTRYADSVKGRFTISRDNAKNTVYLQMNSLKPEDTAVYYCAARWTRQRYRTSYYSWGQGTQVTVSS | high polyreactivity
QVHLVESGGGLVQAGGSLRLSCAASGSTFTDYTIGWYRQAPGKERELVARIRSRGARTYYADSVKGRFTISRDNAKNTVYLQMNSLKPEDTAVNSCNKRWGCLRASPAYDYWGQGTQVTVSS | high polyreactivity
QVHLVESGGGLVQAGGSLRLSCAASGSTFVHYAMGWYRQAPGKERELVADITTGDITNYADSVKGRFTISRDNAKNTVYLQMNSLKQEDTAVYSCNARTRYITSLHQYSLDYWGQGSQVTVSS | low polyreactivity
QVHLVESGGGLVQAGGSLRLSCAASGSTFWGYTMGWYRQAPGKERELVAAISTIGGSTYYADSVKGRFTISRDNAKNTVYLQMNSLKTEDTAVYYCAAYKGKHYKEGYWGQGTQVTVSS | low polyreactivity
QVHLVESGGGLVQAGGSLRLSCAASGSTFYYYAMGWYRQAPGKERELVAVITSGGSTNYADSVKGRFTISRDYAKNSVYLQMNSLKPEDTAVYYCNVGPSTYYQYDYWGQGTQVTVSS | high polyreactivity
QVHLVESGGGLVQAGGSLRLSCAASGSTIDINAMGWYRQAPGKERELVAAISSGGITNYADSVKGRFTISRDNAKNTVYLQMNSLKPEDSAVYYCATQTYTFRWFGSPGWFDYWGQGTQVTVSS | low polyreactivity
QVHLVESGGGLVQAGGSLRLSCAASGSTIRAYAMGWNRQAHVKERELVAAISYSGDSTYYADSVKGRFTISRDNAKNTVYLQMNSLKPEDTAVYYCAADYSYRHYEYDYWGQGTQVSVSS | low polyreactivity
QVHLVESGGGLVQAGGSLRLSCAASGSTIRSYAMGWNRQAPGKERELVARIAYSSGGTYYADSVKGRFTISRDNAKNTVYLQMNSLKPEDTAVYYCAKPSPITSYPRFDYWGQGTQVTVSS | high polyreactivity
QVHLVESGGGLVQAGGSLRLSCAASGSTLFPYAMGWYRQAPGKERELVAAISSRGGRTYYADSVKGRFTISRDNAKNTVYLQMNSLKPEVTAVYYCAAGDDYWGQGTEVTVSS | high polyreactivity
QVHLVESGGGLVQAGGSLRLSCAASGSTSNYYVKVWYGQAPGKERELVASISSGGSTNYADSVKGRFSISRDNAKNSVYLQKNSLKPEDTAVYYCARRRFTHRRYRFDFWGQGTQVTVSS | high polyreactivity
QVHLVESGGGLVQAGGSLRLSCAASGSTSRTYAMGWNRPQPGKERELVAAISSSGGRTTYADSVKGRFTFSRDNAKNTVSLQMNSLKPEDTAVYYCNARTYSYRGYNYWGQGTQVTVSS | high polyreactivity
